Laboratory results as given in patent publication US20240409645A1 (DUALYX, published 2024).
Numbering of substitutions follows the chain as printed. Each block holds one binder with its values, some of them ahead of it.

What was measured:
[1] = molecular target: T1, human interleukin-2 receptor β-chain (IL-2Rβ; CD122), recombinant protein (human, UniProt P14784 27-240); test: P.E. off-rate SPR
T1 construct: also called human IL-2R subunit CD122
T1 sequence: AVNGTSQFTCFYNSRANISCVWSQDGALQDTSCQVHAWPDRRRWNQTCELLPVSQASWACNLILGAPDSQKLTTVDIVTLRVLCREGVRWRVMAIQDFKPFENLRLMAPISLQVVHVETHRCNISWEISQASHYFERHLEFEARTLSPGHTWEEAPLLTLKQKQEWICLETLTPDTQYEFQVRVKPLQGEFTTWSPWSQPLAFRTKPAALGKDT
In short: (§1)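 CM5 chip, amine coupling (acetate buffer), ~2500 RU receptor. VHH P.E. flowed at 30 uL/min; off-rate read over 120 s.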

[2] = molecular target: T1, human interleukin-2 receptor β-chain …; test: P.E. binding ELISA
In short: (§2)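 Read-out: OD at 450 nm, specificity called versus negative controls. Receptor chains (human or mouse IL-2Rα, β, γ) were coated directly overnight at 4° C; 4% Marvel/PBS block 1 h; P.E. at 1:5 dilution in 1% Marvel/PBS incubated 1 h.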

[3] = molecular target: T2, human common cytokine receptor γ-chain (γc; IL-2Rγ; CD132), recombinant protein (human, UniProt P31785 23-262); test: P.E. binding ELISA
T2 construct: also called human IL-2R subunit CD132
T2 sequence: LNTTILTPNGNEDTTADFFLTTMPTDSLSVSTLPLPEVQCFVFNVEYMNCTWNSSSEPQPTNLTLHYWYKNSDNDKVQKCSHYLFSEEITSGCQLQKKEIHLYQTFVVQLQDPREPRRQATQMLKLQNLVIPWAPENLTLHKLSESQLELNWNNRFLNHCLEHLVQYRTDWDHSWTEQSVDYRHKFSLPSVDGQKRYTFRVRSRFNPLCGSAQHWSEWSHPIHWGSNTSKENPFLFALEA
In short: as §2

[4] = molecular target: T2, human common cytokine receptor γ-chain …; test: ELISA, bivalent VHH-hFc
In short: (§3)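 Human and cyno receptor subunits coated at 1 μg/mL in PBS pH 7.4 overnight at 4° C, casein-blocked; test antibodies bound 1 h, detected with anti-human IgG Fc-HRP and TMB, A450 (ref 620 nm). EC50 from four-parameter variable-slope nonlinear fit of dose-response binding curves.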

[5] = molecular target: T3, cynomolgus monkey IL-2Rγ/CD132 subunit (cynomolgus monkey, UniProt A0A2K5VGJ6 23-262); test: ELISA, bivalent VHH-hFc
T3 construct: also called Cyno IL-2R subunit
T3 sequence: T2 sequence with T14A, A16T, T22S, H141R, T228S
In short: as §3

[6] = molecular target: T2, human common cytokine receptor γ-chain …; test: P.E. off-rate SPR
In short: as §1

[7] = molecular target: T4, human IL-2Rγ (common cytokine receptor γ-chain) (human, UniProt P31785 23-262, limits assumed); test: binding ELISA, periplasmic extract on coated human IL-2Rγ
T4 construct: Recombinant human IL-2Rγ protein coated on the ELISA plate or immobilised on the CM5 chip; also called hu IL-2R; CD132
T4 sequence: T2 sequence
Procedure: (§4) In a binding ELISA, human or mouse IL-2Rα, IL-2Rβ and IL-2Rγ proteins were coated directly on maxisorp microtiter plates overnight at 4° C. Free binding sites were blocked using 4% Marvel in PBS for 1 hour. Next, 1:5 dilution of P.E. in 1% Marvel/PBS were added to wells and incubated for 1 hour. […] Binding specificity was determined based on O.D. at 450 nm values compared to negative controls.

mouse IL-2Rγ [8] = molecular target: T5, mouse IL-2Rγ (mouse, UniProt P34902 23-263, limits assumed); test: binding ELISA, periplasmic extract on coated mouse IL-2Rγ
T5 construct: Recombinant mouse IL-2Rγ protein coated on the ELISA plate or immobilised on the CM5 chip; also called mo IL-2R
T5 sequence (looked up): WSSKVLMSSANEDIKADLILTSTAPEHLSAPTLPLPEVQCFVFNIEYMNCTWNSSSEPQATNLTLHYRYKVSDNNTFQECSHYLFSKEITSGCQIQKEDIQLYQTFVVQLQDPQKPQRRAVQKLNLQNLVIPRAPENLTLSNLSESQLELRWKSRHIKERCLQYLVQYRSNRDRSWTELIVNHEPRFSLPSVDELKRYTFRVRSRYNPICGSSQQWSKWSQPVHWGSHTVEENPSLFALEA
Procedure: as §4

[9] = molecular target: T4, human IL-2Rγ (common cytokine receptor …); test: SPR off-rate ranking, periplasmic extract over immobilised human IL-2Rγ
Procedure: (§5) SPR was performed to determine dissociation rates using Biacore 3000 instrument (GE Healthcare). Briefly, human and mouse IL-2R proteins were immobilized on carboxylmethyl dextran sensor chip (CM5) at approximately 2500 RUs using amine coupling in acetate buffer (GE Healthcare). The VHH-containing P.E. were loaded with a flow rate of 30 uL/min and the off-rates were measured over a 120s period.

mouse IL-2Rγ [10] = molecular target: T5, mouse IL-2Rγ; test: SPR off-rate ranking, periplasmic extract over immobilised mouse IL-2Rγ
Procedure: as §5

B4: 35-MP07G01 VHH-hFc, monospecific bivalent (Fc fusion)
chain: QVQLQESGGGLVQGGGSLRLSCAASGGIFSSYAMGWFRQAPGKEREFVAAISRSGRSTNYADSVKGRFTISRDNAKSTVYLQMNSLKPEETAVYYCAAGRYYNSAYDPSPGDFGSWGHGTQVTVSS
notes: IgG1 Fc LALA-PG; not shown: human IgG1 CH2 and CH3 domains (Fc)
binding result [4]: no binding
binding result [5]: no binding

B6: 32-MP04A08 VHH-hFc, monospecific bivalent (Fc fusion)
chain: QVQLVESGGGLVQAGGSLRLSCAASGRTFGSTAVGWFRQVPGKEREFVSAINRSGSATTYADSVKGRFTISRDNAKNTVYLQMNSLTPEDTGVYYCAADSLPYGRPYYFQRSAGEYDYWGQGTQVTVSS
notes: as for B4
EC50 [4]: 0.14 nM
binding result [5]: no binding

B10: 36-MP07F02 VHH (periplasmic extract) (VHH)
VHH: QVQLVESGGGLVQAGGSLRLSCAASGRTLSRYAMGWFRQAPGSEREFVAASSWGGDTFYADSVEGRFTFSRDNAKNAVYLQMNSLQPEDTAAYYCAAAPTSFPTTAYSSSNSYAYWGQGTQVTVSS
notes: soluble VHH in periplasmic extract
koff [6]: 0.00331 s⁻¹
OD450 nm [3]: 0.896 OD450 nm

B11: FJ1427_P035MP07E11 (VHH)
VHH: B10 VHH with S43K, A49T, S51N, F58Y, E64Q, A77T, A92V, P103A
notes: Tested as soluble VHH fragment in periplasmic extract (P.E.); also called Clone nr
P.E. binding ELISA OD450 [7]: 0.398 OD450 nm
P.E. binding ELISA OD450 (mouse IL-2Rγ [8]): 0.045 OD450 nm
koff [9]: 0.00304 s⁻¹
koff (mouse IL-2Rγ [10]): 0.109 s⁻¹

B12: FJ1427_P035MP07E12 (VHH)
VHH: B10 VHH with S43K, A49T, S51N, F58Y, A60T, A92V, P103A, A114T
notes: as for B11
P.E. binding ELISA OD450 [7]: 0.956 OD450 nm
P.E. binding ELISA OD450 (mouse IL-2Rγ [8]): 0.05 OD450 nm
koff [9]: 0.00305 s⁻¹
koff (mouse IL-2Rγ [10]): 0.0883 s⁻¹

B13: FJ1427_P035MP07H11 (VHH)
VHH: B10 VHH with A14P, S43K, E44D, K75E, V78T, A92V, P103A, A114G, Y115S
notes: Tested as soluble VHH fragment in periplasmic extract (P.E.); also called Clone nr; 664
P.E. binding ELISA OD450 [7]: 1.32 OD450 nm
P.E. binding ELISA OD450 (mouse IL-2Rγ [8]): 0.057 OD450 nm
koff [9]: 0.00252 s⁻¹
koff (mouse IL-2Rγ [10]): 0.066 s⁻¹

B14: FJ1427_P035MP07F11 (VHH)
VHH: B10 VHH with Y32L, S43K, A50V, S51N, F69Y, N76S, A92V, P103A
notes: as for B11
P.E. binding ELISA OD450 [7]: 0.983 OD450 nm
P.E. binding ELISA OD450 (mouse IL-2Rγ [8]): 0.686 OD450 nm
koff [9]: 0.00131 s⁻¹
koff (mouse IL-2Rγ [10]): 0.00757 s⁻¹

B16: FJ1427_P035MP07G11 (VHH)
VHH: B10 VHH with V5Q, S43K, A49T, S51N, F58Y, E64Q, A77T, A92V, P103A
notes: as for B11
P.E. binding ELISA OD450 [7]: 0.999 OD450 nm
P.E. binding ELISA OD450 (mouse IL-2Rγ [8]): 0.046 OD450 nm
koff [9]: 0.00351 s⁻¹
koff (mouse IL-2Rγ [10]): 0.099 s⁻¹

Second part, the binder after the results:

koff [1]: 0.000419 s⁻¹
OD450 nm [2]: 0.781 OD450 nm
B1: 22-MP03F12 VHH (periplasmic extract) (VHH)
VHH: EVQLVESGGGLVQAGGSLRLSCAASGSIFSINAMAWFRQVPGMERELVAAISRDGGASVYRDSVKGRFTISRDNSKNTVYLQMNTLKPEDTAIYVCAATRAIGWTARWITTDFDFWGQGTQVTVSS
notes: as for B10

koff [1]: 0.000594 s⁻¹
OD450 nm [2]: 0.405 OD450 nm
B2: 18-MP03C03 VHH (periplasmic extract) (VHH)
VHH: QVQLVESGGGLVQPGGSLRLSCAISGGTLDSYGIGWVRQAPGKQREGVSCMSRSDDRTYYADSVKGRFTISKDSAKNTVYLQMTSLKPEDTAVYYCAAVDAYGCSLVQPTTYDFWGLGTQVTVSS
notes: as for B10

OD450 nm [3]: 0.134 OD450 nm
B3: 35-MP07G01 VHH (periplasmic extract) (VHH)
VHH: B4 chain
notes: as for B10

koff [6]: 0.0616 s⁻¹
OD450 nm [3]: 0.407 OD450 nm
B5: 32-MP04A08 VHH (periplasmic extract) (VHH)
VHH: B6 chain
notes: as for B10

P.E. binding ELISA OD450 [7]: 0.823 OD450 nm
P.E. binding ELISA OD450 (mouse IL-2Rγ [8]): 0.341 OD450 nm
koff [9]: 0.00197 s⁻¹
koff (mouse IL-2Rγ [10]): 0.00792 s⁻¹
B7: FJ1427_P035MP07F12 (VHH)
VHH: EVQLVESGGGLVQAGDSLRLSCVASGRTLSRCAMGWFRKAPGKEREYVAISSWGGDTFYEDSVEGRFTFSRDNAKNTVYLQMNSLRPEDTAVYYCAAAPTSFATTAYSSSNSYAYWGQGTQVTVSS
notes: Tested as soluble VHH fragment in periplasmic extract (P.E.); also called Clone nr; 670

koff [6]: 0.00131 s⁻¹
OD450 nm [3]: 0.362 OD450 nm
B8: 27-MP04G01 VHH (periplasmic extract) (VHH)
VHH: QVQLVESGGGLVQAGGSLTLSCAAPGRTFGTDVVGWFRQAPGKEREFVASISRSGDGIYYDDSVKGRFTISRNNAWNTVNLQMNSLKVEDTAVYYCAAGDGWSTYDYWGQGTQVTVSS
notes: as for B10

P.E. binding ELISA OD450 [7]: 0.426 OD450 nm
P.E. binding ELISA OD450 (mouse IL-2Rγ [8]): 0.071 OD450 nm
koff [9]: 0.00197 s⁻¹
koff (mouse IL-2Rγ [10]): 0.0146 s⁻¹
B9: FJ1427_P035MP07C12 (VHH)
VHH: QVQLVESGGGLVQAGGSLRLSCAASGRSLSRDAMGWFRQAPGKEREFVAVMSWGGDTFYTDSVEGRFTFSRDNAKNAVYLEMNDLQPEDTAVYYCAAAPTSFATTAYSSSNSYSYWGRGTQVTVSS
notes: as for B11

P.E. binding ELISA OD450 [7]: 0.511 OD450 nm
P.E. binding ELISA OD450 (mouse IL-2Rγ [8]): 0.051 OD450 nm
koff [9]: 0.00199 s⁻¹
koff (mouse IL-2Rγ [10]): 0.0122 s⁻¹
B15: FJ1427_P035MP07D12 (VHH)
VHH: B10 VHH with T28A, Y32L, S43K, A49V, G55D, E64K, A77T, E88G, A92V, P103A
notes: Tested as soluble VHH fragment in periplasmic extract (P.E.); also called Clone nr; 668

P.E. binding ELISA OD450 [7]: 1.79 OD450 nm
P.E. binding ELISA OD450 (mouse IL-2Rγ [8]): 0.7 OD450 nm
koff [9]: 0.00153 s⁻¹
koff (mouse IL-2Rγ [10]): 0.00766 s⁻¹
B17: FJ1427_P035MP07B12 (VHH)
VHH: B7 VHH with D16G, V23A, C32Y, K39Q, S51D, E60A, T77E, R86Q, A97G, A114R
notes: as for B11

koff [1]: 0.00169 s⁻¹
OD450 nm [2]: 0.581 OD450 nm
B18: 15-MP02E06 VHH (periplasmic extract) (VHH)
VHH: QVQLVESGGGSVQPGGSLRLSCAASGFTFSNYAMSWVRQAPGKGLEWVASITGFGRGTDYADSVKGRFTISRDNAEDTLYLQMNSLKPEDTAVYYCAKYSSSTYYPPTPARGRDYRGQGTQVTVSS
notes: as for B10
